B1: N^ε1-[2-[2-[2-[[(4S)-4-carboxy-4-(19-carboxynonadecanoylamino)butanoyl]amino]ethoxy]ethoxy]acetyl]-[Arg17,Pro21,Pro27,Pro31,His35]-h-amylin (peptide)
peptide: K([AEEA-γGlu-C20 diacid])CNTATCATQRLANFLRHSSPNFGAIPSSTPVGSHTY-NH2
modifications: disulfide 2-7; N-terminus assumed
SMILES: CC[C@H](C)[C@H](NC(=O)[C@H](C)NC(=O)CNC(=O)[C@H](Cc1ccccc1)NC(=O)[C@H](CC(N)=O)NC(=O)[C@@H]1CCCN1C(=O)[C@H](CO)NC(=O)[C@H](CO)NC(=O)[C@H](Cc1c[nH]cn1)NC(=O)[C@H](CCCNC(=N)N)NC(=O)[C@H](CC(C)C)NC(=O)[C@H](Cc1ccccc1)NC(=O)[C@H](CC(N)=O)NC(=O)[C@H](C)NC(=O)[C@H](CC(C)C)NC(=O)[C@H](CCCNC(=N)N)NC(=O)[C@H](CCC(N)=O)NC(=O)[C@@H](NC(=O)[C@H](C)NC(=O)[C@@H]1CSSC[C@H](NC(=O)[C@@H](N)CCCCNC(=O)COCCOCCNC(=O)CC[C@H](NC(=O)CCCCCCCCCCCCCCCCCCC(=O)O)C(=O)O)C(=O)N[C@@H](CC(N)=O)C(=O)N[C@@H]([C@@H](C)O)C(=O)N[C@@H](C)C(=O)N[C@@H]([C@@H](C)O)C(=O)N1)[C@@H](C)O)C(=O)N1CCC[C@H]1C(=O)N[C@@H](CO)C(=O)N[C@@H](CO)C(=O)N[C@H](C(=O)N1CCC[C@H]1C(=O)N[C@H](C(=O)NCC(=O)N[C@@H](CO)C(=O)N[C@@H](Cc1c[nH]cn1)C(=O)N[C@H](C(=O)N[C@@H](Cc1ccc(O)cc1)C(N)=O)[C@@H](C)O)C(C)C)[C@@H](C)O
notes: synthetic analogue of human amylin; also called compound 57
B2: N^ε1-[2-[2-[2-[[(4S)-4-carboxy-4-(19-carboxynonadecanoylamino)butanoyl]amino]ethoxy]ethoxy]acetyl]-[Arg17,Pro21,Pro27,Pro34,His35]-h-amylin (peptide)
peptide: K([AEEA-γGlu-C20 diacid])CNTATCATQRLANFLRHSSPNFGAIPSSTNVGPHTY-NH2
modifications: disulfide 2-7; N-terminus assumed
SMILES: CC[C@H](C)[C@H](NC(=O)[C@H](C)NC(=O)CNC(=O)[C@H](Cc1ccccc1)NC(=O)[C@H](CC(N)=O)NC(=O)[C@@H]1CCCN1C(=O)[C@H](CO)NC(=O)[C@H](CO)NC(=O)[C@H](Cc1c[nH]cn1)NC(=O)[C@H](CCCNC(=N)N)NC(=O)[C@H](CC(C)C)NC(=O)[C@H](Cc1ccccc1)NC(=O)[C@H](CC(N)=O)NC(=O)[C@H](C)NC(=O)[C@H](CC(C)C)NC(=O)[C@H](CCCNC(=N)N)NC(=O)[C@H](CCC(N)=O)NC(=O)[C@@H](NC(=O)[C@H](C)NC(=O)[C@@H]1CSSC[C@H](NC(=O)[C@@H](N)CCCCNC(=O)COCCOCCNC(=O)CC[C@H](NC(=O)CCCCCCCCCCCCCCCCCCC(=O)O)C(=O)O)C(=O)N[C@@H](CC(N)=O)C(=O)N[C@@H]([C@@H](C)O)C(=O)N[C@@H](C)C(=O)N[C@@H]([C@@H](C)O)C(=O)N1)[C@@H](C)O)C(=O)N1CCC[C@H]1C(=O)N[C@@H](CO)C(=O)N[C@@H](CO)C(=O)N[C@H](C(=O)N[C@@H](CC(N)=O)C(=O)N[C@H](C(=O)NCC(=O)N1CCC[C@H]1C(=O)N[C@@H](Cc1c[nH]cn1)C(=O)N[C@H](C(=O)N[C@@H](Cc1ccc(O)cc1)C(N)=O)[C@@H](C)O)C(C)C)[C@@H](C)O
notes: synthetic analogue of human amylin; also called compound 58
B3: N^ε1-[2-[2-[2-[[(4S)-4-carboxy-4-(19-carboxynonadecanoylamino)butanoyl]amino]ethoxy]ethoxy]acetyl]-[Arg17,Pro21,Pro27,Pro34]-h-amylin (peptide)
peptide: K([AEEA-γGlu-C20 diacid])CNTATCATQRLANFLRHSSPNFGAIPSSTNVGPNTY-NH2
modifications: disulfide 2-7; N-terminus assumed
SMILES: CC[C@H](C)[C@H](NC(=O)[C@H](C)NC(=O)CNC(=O)[C@H](Cc1ccccc1)NC(=O)[C@H](CC(N)=O)NC(=O)[C@@H]1CCCN1C(=O)[C@H](CO)NC(=O)[C@H](CO)NC(=O)[C@H](Cc1c[nH]cn1)NC(=O)[C@H](CCCNC(=N)N)NC(=O)[C@H](CC(C)C)NC(=O)[C@H](Cc1ccccc1)NC(=O)[C@H](CC(N)=O)NC(=O)[C@H](C)NC(=O)[C@H](CC(C)C)NC(=O)[C@H](CCCNC(=N)N)NC(=O)[C@H](CCC(N)=O)NC(=O)[C@@H](NC(=O)[C@H](C)NC(=O)[C@@H]1CSSC[C@H](NC(=O)[C@@H](N)CCCCNC(=O)COCCOCCNC(=O)CC[C@H](NC(=O)CCCCCCCCCCCCCCCCCCC(=O)O)C(=O)O)C(=O)N[C@@H](CC(N)=O)C(=O)N[C@@H]([C@@H](C)O)C(=O)N[C@@H](C)C(=O)N[C@@H]([C@@H](C)O)C(=O)N1)[C@@H](C)O)C(=O)N1CCC[C@H]1C(=O)N[C@@H](CO)C(=O)N[C@@H](CO)C(=O)N[C@H](C(=O)N[C@@H](CC(N)=O)C(=O)N[C@H](C(=O)NCC(=O)N1CCC[C@H]1C(=O)N[C@@H](CC(N)=O)C(=O)N[C@H](C(=O)N[C@@H](Cc1ccc(O)cc1)C(N)=O)[C@@H](C)O)C(C)C)[C@@H](C)O
notes: synthetic analogue of human amylin; also called compound 50
B4: N^ε1-[2-[2-[2-[[(4S)-4-carboxy-4-(19-carboxynonadecanoylamino)butanoyl]amino]ethoxy]ethoxy]acetyl]-[His14,Arg17,Pro21,Pro27,Arg34]-h-amylin (peptide)
peptide: K([AEEA-γGlu-C20 diacid])CNTATCATQRLAHFLRHSSPNFGAIPSSTNVGRNTY-NH2
modifications: disulfide 2-7; N-terminus assumed
SMILES: CC[C@H](C)[C@H](NC(=O)[C@H](C)NC(=O)CNC(=O)[C@H](Cc1ccccc1)NC(=O)[C@H](CC(N)=O)NC(=O)[C@@H]1CCCN1C(=O)[C@H](CO)NC(=O)[C@H](CO)NC(=O)[C@H](Cc1c[nH]cn1)NC(=O)[C@H](CCCNC(=N)N)NC(=O)[C@H](CC(C)C)NC(=O)[C@H](Cc1ccccc1)NC(=O)[C@H](Cc1c[nH]cn1)NC(=O)[C@H](C)NC(=O)[C@H](CC(C)C)NC(=O)[C@H](CCCNC(=N)N)NC(=O)[C@H](CCC(N)=O)NC(=O)[C@@H](NC(=O)[C@H](C)NC(=O)[C@@H]1CSSC[C@H](NC(=O)[C@@H](N)CCCCNC(=O)COCCOCCNC(=O)CC[C@H](NC(=O)CCCCCCCCCCCCCCCCCCC(=O)O)C(=O)O)C(=O)N[C@@H](CC(N)=O)C(=O)N[C@@H]([C@@H](C)O)C(=O)N[C@@H](C)C(=O)N[C@@H]([C@@H](C)O)C(=O)N1)[C@@H](C)O)C(=O)N1CCC[C@H]1C(=O)N[C@@H](CO)C(=O)N[C@@H](CO)C(=O)N[C@H](C(=O)N[C@@H](CC(N)=O)C(=O)N[C@H](C(=O)NCC(=O)N[C@@H](CCCNC(=N)N)C(=O)N[C@@H](CC(N)=O)C(=O)N[C@H](C(=O)N[C@@H](Cc1ccc(O)cc1)C(N)=O)[C@@H](C)O)C(C)C)[C@@H](C)O
notes: synthetic analogue of human amylin; also called compound 84
B5: N^ε1-[2-[2-[2-[[(4S)-4-carboxy-4-(19-carboxynonadecanoylamino)butanoyl]amino]ethoxy]ethoxy]acetyl]-[Gly14,Arg17,Pro21,Pro27,Pro31]-h-amylin (peptide)
peptide: K([AEEA-γGlu-C20 diacid])CNTATCATQRLAGFLRHSSPNFGAIPSSTPVGSNTY-NH2
modifications: disulfide 2-7; N-terminus assumed
SMILES: CC[C@H](C)[C@H](NC(=O)[C@H](C)NC(=O)CNC(=O)[C@H](Cc1ccccc1)NC(=O)[C@H](CC(N)=O)NC(=O)[C@@H]1CCCN1C(=O)[C@H](CO)NC(=O)[C@H](CO)NC(=O)[C@H](Cc1c[nH]cn1)NC(=O)[C@H](CCCNC(=N)N)NC(=O)[C@H](CC(C)C)NC(=O)[C@H](Cc1ccccc1)NC(=O)CNC(=O)[C@H](C)NC(=O)[C@H](CC(C)C)NC(=O)[C@H](CCCNC(=N)N)NC(=O)[C@H](CCC(N)=O)NC(=O)[C@@H](NC(=O)[C@H](C)NC(=O)[C@@H]1CSSC[C@H](NC(=O)[C@@H](N)CCCCNC(=O)COCCOCCNC(=O)CC[C@H](NC(=O)CCCCCCCCCCCCCCCCCCC(=O)O)C(=O)O)C(=O)N[C@@H](CC(N)=O)C(=O)N[C@@H]([C@@H](C)O)C(=O)N[C@@H](C)C(=O)N[C@@H]([C@@H](C)O)C(=O)N1)[C@@H](C)O)C(=O)N1CCC[C@H]1C(=O)N[C@@H](CO)C(=O)N[C@@H](CO)C(=O)N[C@H](C(=O)N1CCC[C@H]1C(=O)N[C@H](C(=O)NCC(=O)N[C@@H](CO)C(=O)N[C@@H](CC(N)=O)C(=O)N[C@H](C(=O)N[C@@H](Cc1ccc(O)cc1)C(N)=O)[C@@H](C)O)C(C)C)[C@@H](C)O
notes: synthetic analogue of human amylin; also called compound 71

Numbered stars: 1 amine (or outer) side, 2 acyl side, 3 side chain; on linkers, the order of the positions; unused ones are H or OH. Bridge positions count the residues as written; N and C are the ends. Side chains are listed from the residue outwards. Ends that are not written are not given here. * marks the point of attachment. C20 diacid = O=C(O)CCCCCCCCCCCCCCCCCCC(=O)*; γGlu = O=C(O)[C@H](CCC(=O)[*:2])N[*:1]; AEEA = NCCOCCOCC(=O)O

Broadly, the IC50 is the concentration that gives 50% inhibition.

One assay concerns the target T1, rat calcitonin receptor (rat, UniProt P32214 25-516).
T1 construct: whole, on cells; also called rCTR; rat calcitonin (a) receptor
T1 sequence (looked up): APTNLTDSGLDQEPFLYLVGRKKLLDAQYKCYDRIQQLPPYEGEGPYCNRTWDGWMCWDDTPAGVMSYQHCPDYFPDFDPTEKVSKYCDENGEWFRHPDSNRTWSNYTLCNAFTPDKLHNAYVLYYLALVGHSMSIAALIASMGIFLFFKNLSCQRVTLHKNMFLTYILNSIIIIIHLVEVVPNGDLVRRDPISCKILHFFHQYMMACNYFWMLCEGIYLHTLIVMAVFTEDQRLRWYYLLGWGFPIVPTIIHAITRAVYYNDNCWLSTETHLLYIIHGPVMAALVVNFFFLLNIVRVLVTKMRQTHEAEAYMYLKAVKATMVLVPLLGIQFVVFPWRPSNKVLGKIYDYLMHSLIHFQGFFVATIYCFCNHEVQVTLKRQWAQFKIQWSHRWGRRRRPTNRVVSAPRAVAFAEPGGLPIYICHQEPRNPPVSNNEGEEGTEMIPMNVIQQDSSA
The assay is described as follows: SPA competition with 125I-calcitonin, membranes of BHK cells with rat calcitonin receptor (Assay VIII).
Take B1: the IC50 was 24.4 nM.

In the case of B2, the IC50 turned out to be 10.3 nM.

As for B3, the IC50 came out at 5.63 nM.

Regarding B4, the 50% inhibitory concentration (IC50) amounted to 477 nM.

In the case of B5, the 50% inhibitory concentration (IC50) stood at 44.8 nM.

A further assay concerns the target T1, rat calcitonin receptor. The experiment in a line: ratio of binding IC50s: rat calcitonin receptor over rat amylin receptor (reference).
Consider B1, for which the “Ratio rCT/rAmylin binding” value is 135.

As for B2, the “Ratio rCT/rAmylin binding” value came to 76.6.

As to B3, the “Ratio rCT/rAmylin binding” value amounted to 81.7.

Take B4: the “Ratio rCT/rAmylin binding” value worked out at 94.3.

As for B5, the “Ratio rCT/rAmylin binding” value was determined as 162.

The next assay concerns the target T2, human calcitonin receptor (human, UniProt P30988 25-474).
T2 construct: whole, on cells; also called hCTR; hCT
T2 sequence (looked up): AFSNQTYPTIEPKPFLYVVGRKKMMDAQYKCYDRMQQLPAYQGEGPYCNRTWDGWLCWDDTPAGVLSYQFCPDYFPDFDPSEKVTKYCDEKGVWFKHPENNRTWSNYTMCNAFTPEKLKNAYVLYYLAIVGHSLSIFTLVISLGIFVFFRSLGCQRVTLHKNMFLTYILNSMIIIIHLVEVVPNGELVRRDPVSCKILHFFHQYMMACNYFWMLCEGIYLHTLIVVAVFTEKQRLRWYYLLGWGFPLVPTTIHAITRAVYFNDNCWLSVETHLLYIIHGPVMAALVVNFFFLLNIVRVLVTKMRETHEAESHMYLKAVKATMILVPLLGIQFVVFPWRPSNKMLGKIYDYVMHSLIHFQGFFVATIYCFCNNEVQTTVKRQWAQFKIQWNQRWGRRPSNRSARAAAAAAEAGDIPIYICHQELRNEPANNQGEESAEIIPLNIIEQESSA
The experiment in a line: ratio of binding IC50s: human calcitonin receptor over human amylin receptor (reference). A digest of the protocol: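 Scintillation proximity competition binding on cell membranes at 35 ng/μL with SPA beads, in 50 mM Hepes pH 7.4, 1 mM CaCl2, 5 mM MgCl₂, 0.1% OA, 0.02% Tween20. Incubated 120 min at 25° C with shaking. IC₅₀ from one-site competition fit.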
Consider B1, for which the “Ratio hCT/hAmylin binding” value came to 133.

Take B2: the “Ratio hCT/hAmylin binding” value turned out to be 109.

For B3, the “Ratio hCT/hAmylin binding” value came to 36.

Turning to B4, the “Ratio hCT/hAmylin binding” value was 120.

Consider B5, for which the “Ratio hCT/hAmylin binding” value came out at 32.

Another assay addresses T3, rat amylin receptor (rat calcitonin receptor + rat RAMP 3) (rat, UniProt P32214 25-516; Q9JJ73 23-147).
T3 construct: whole, on cells; also called rAmylin-R; rat amylin 3(a) receptor
T3 sequence (looked up) 1: T1 sequence (looked up)
T3 sequence (looked up) 2: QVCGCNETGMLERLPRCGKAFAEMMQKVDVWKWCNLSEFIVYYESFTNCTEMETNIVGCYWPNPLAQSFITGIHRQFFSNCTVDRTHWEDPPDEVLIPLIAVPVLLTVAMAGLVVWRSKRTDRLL
The experiment in a line: SPA competition with 125I-rat amylin, membranes of BHK cells with rat calcitonin receptor + rat RAMP3 (Assay VI).
As for B1, the IC50 turned out to be 0.181 nM.

For B2, the IC50 stood at 0.135 nM.

For B3, the IC50 came out at 0.069 nM.

Turning to B4, the half-maximal inhibitory concentration (IC50) is 5.05 nM.

Take B5: the IC50 amounted to 0.276 nM.

(Values after patent publication US20140087995A1 (published 2014).)
